# Results taken from the nanobody polyreactivity screen of Harvey et al. (2022).
# Experiment: yeast display, Sf9 membrane polyspecificity reagent, FACS + sequencing; frameworks hold sequencing errors
# Outline: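 Nanobodies from a synthetic yeast display library (Saccharomyces cerevisiae BJ5465), induced 36–48 hours with galactose, were stained 1 hour at 4 °C with 10% biotinylated, detergent-solubilized Sf9 membrane reagent, enriched on streptavidin microbeads, then FACS-sorted. Anti-HA (expression) and streptavidin (reagent binding) fluorescence set low and high (top ~1%) gates. Polyreactivity labels come from the gate of origin. Genes were colony-PCR amplified, MiSeq 2 × 250 sequenced and filtered by CDR length.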
row,Sequence,polyreactivity (PSR sort gate)
1,QVQLVESGGGLDQAGGSLRLSCAASGSIFYPYAMRWYRQAPGKERELVAAISSGGGTNYADSVKGRFTISRDNAKNTVYLQMNSLKPEDTEVYYCNARTGTTWQGYEYDYWGQGTQVTVSS,low polyreactivity
2,QVQLVESGGGLDQAGGSLRLSCAASGSILDSYTMGWYRQAPGKERELVPAITSDGGSTYYADSVKGRFTISRDNAKNTVYLQMNSLKPEDTAVYYCAKLSRYYGFWYTPDFDYWGQGTQVTVSS,high polyreactivity
3,QVQLVESGGGLDQAGGSLRLSCAASGSILPYYAMGWYRQAPGKERELVATITDGTDTYYADSVKGRFTFSRDNAKNTVYLQMNSLKQEDTAVYYCDRKQYWGYDYWGQGTQVTVSS,low polyreactivity
4,QVQLVESGGGLDQAGGSLRLSCAASGSISQVYAMGWYRQATGKERELVAVINDADDTSYADSVKGRFTISRDNAKNTVYLQMNSLKPEDTAVYYCAAESSYFVALTQFYTVEFYYWGQGTQLTVSS,low polyreactivity
5,QVQLVESGGGLDQAGGSLRLSCAASGSTFANNAMGWYREAPGKERELVAAISSGGSTNYADSVKGRFTISRDNAKNTGYLQMNSLKPEDTAVYYCNADAYDEIKYGYWGQGTQVTVSS,low polyreactivity
6,QVQLVESGGGLDQAGGSLRLSCAASGSTFQAYARGWYRQAPGKERELVAAISRRSGSTYYADSVKGRFTISRDNAKNTVYLQMNSLKPEDTAVYYCNAGSRRPYDYWGQGTQVTVSS,low polyreactivity
7,QVQLVESGGGLDQAGGSLRLSCAASGSTFQPYAMGRYRQAPGKEREFVATISGSAGSTYYADSVKGRFKISRDNANYTVYLQMNSLKPEDTAVYYCNADSGWFGYDYWGQGNQVTVSS,low polyreactivity
8,QVQLVESGGGLDQAGGSLRLSCAASGSTFRWYAMGWYRQAPGKERELVAAISSSGGSTYYADSVKGRFTISRDNAKNTVYLQMNSLKPEDTAVYYCAADFTGPFDYWGQGTQVTVSS,high polyreactivity
9,QVQLVESGGGLDQAGGSLRLSCAASGSTFSFYAMGWYRQAPGKERELVAAISRSGGCKFYADYVKGRFSISRDNEKNTVYLQMNRLKPEDTAVYYCAAKSAVVVGMDSWGQGTQVTVSS,high polyreactivity
10,QVQLVESGGGLDQAGGSLRLSCAASGSTFSYNAKGWYRQAPGKERELVAAITYRGSSTYYADSVKGRFTSSRDNAKNTVDLQMNSLKPEDTAVYYCAVSYVRYRGSGLTAFNYWGQGTQVTVSS,high polyreactivity
11,QVQLVESGGGLDQAGGSLRLSCAASGSTFVANAMGWYRQAPGKERELVAAITYRGGSTYYADSVKGRFTISRDNAKNSVYLQMNSLKPEDTAVYYCNTVYYVASASYYWRYDYWGQGTQVTVSS,high polyreactivity
12,QVQLVESGGGLDQAGGSLRLSCAASGSTFVFYAMVWYIQAPGKEREFVAAITNSGSNTYYADSVKGRFTISRDNAKMTVNLQMNSLKPEDTAVYYCAARPFGRYRGRYYYWGQGTQVTVSS,high polyreactivity
13,QVQLVESGGGLDQAGGSLRLSCAASGSTFVGYAMGWYRQAPGKERELVAAISGSGTSTYYADSVKGRFTISRDNAKNTVYLQMNSLKPEDTAVYYCNADPIFVYSSYNYWGQGTQVTVSS,low polyreactivity
14,QVQLVESGGGLDQAGGSLRLSCAASGSTFVLNAMGWYRQAPGKERDLVAAITSNGGRTYYADSVKGRFTISRDNAKNTVYLQMNSLKPEDTAVYYCNAVKTHRVRVHGWDYGYWGQGTQVTVSS,high polyreactivity
15,QVQLVESGGGLDQAGGSLRLSCAASGSTFVSNAMGWYRQAPGKERELVAAISKSGGSTYYADSVKGRFTISRDNAKNTVYLQMNSLKPEDTAVYYCAKYNAKSFYGQYDYWGQGTQVTVSS,high polyreactivity
16,QVQLVESGGGLDQAGGSLRLSCAASGSTFYKYAMGWYRQAPGNERDLVAGISSSGGNTYYADSVKGRFTISRDNAKNTDYLQMNSLKPEDTAVYYCAARPRYLKEYDYWGQGTQVSVSS,high polyreactivity
17,QVQLVESGGGLDQAGGSLRLSCAASGSTIHYYAMGWYRQAPRKERELVAVISSGGSTYYADSVKGRFTISRDNAKNTVYLQMNSLNPEDTAVYYCAKDYRDYNRGWYDYWGQGTQVTVSS,low polyreactivity
18,QVQLVESGGGLDQAGGSLRLSCAASGSTSPYYTMGWYRQAPGKERELVASINESGGSTYYADSVKGRFTISRDNAKNTVYLLMNSLKPEDTAVYYCNAEYTTPSYPVYRIDYYWFDYWGQGTQVTVSS,low polyreactivity
19,QVQLVESGGGLDQAGGSLRLSCAASVFIFAYYAMGWYRQAPGKERELVAAITRHGGSTYDADSVKGRFTISRDNAQNTVYLQMNSLKPEETAVYYCNAYFGWSASRQSYDYWGQGTQVTVSS,high polyreactivity
20,QVQLVESGGGLDQAGGSLRLSCAASVSTFDAYAMVWSTQAPGQERELVAAISSSAASTSYADSVKGRFTISRDNAKNTVYVQMNSLKPEDTAFYYCAARPYRRPWYRGRYYYWGQGTQVTVSS,high polyreactivity

row,Sequence,polyreactivity (PSR sort gate)
1,QVQLVESGGGLDQAGGSLRLSCAAYGSTFAPNAMGGYRQSPGKERELVAAISSGSSTYYADSVKGRFTISRDNAKNTVNLQMNSLKPEDTAVYYCIARGLSSLSTIEDYCGQGTQVTVSS,high polyreactivity
2,QVQLVESGGGLDQAGGSLRLSCADSGRTFYIYAMGWYRQAPGKERELVAAITSVGSTNYADSVKGRFTISRDNAKNTVYLQMNSLKPEDTAVYYCAAESTEGTSGDYDYWGQGTQVTVSS,low polyreactivity
3,QVQLVESGGGLDQAGGSLRLSCAPSGYTFNVYSMGWYRQAPGNESELVAGISSYGGSTYYADSVKGRFTISRDNAKNTVYIQMNSLKPEDTAVYYCAARSALYPKYESWGQGTQVTVSS,low polyreactivity
4,QVQLVESGGGLDQAGGSLRLSFAASGFIFRYYTMGWYRQAPGKERELVAVITRGGSTYYADSVKGRFTISRDNAKNTVYLQMNSLKPEDTAVYYCAADRPGTGYSDYDYWGQGTQVTVSS,high polyreactivity
5,QVQLVESGGGLDQAGGSLRLSFAASGFTFGYYAMGWYRQEPGKARELVAAITYDGDTTYYADSVKGRITISRDNAKNTVYLQMNSLKPEDTAVYYCNRDVLTFNYDYWGQGTQVTVSS,low polyreactivity
6,QVQLVESGGGLDQAGGSLRLSSAASGLTFGGNAMGWYRQAPGKERELVAAISWSDDTTDYADSVKGRFTISRDNAKNTVYLQMNSLKPEDTAVYYCAARLPFEHVEYWGQGTQVTVSS,low polyreactivity
7,QVQLVESGGGLDQAGGSLRLSSAASVSIFRYNTMGWYRPAPGKEREFVDSIRIGGSTYYADSVKGRFTISRDNAKNTVYLQMNSLKPEDTAVYYCAVRPYRSAGGSVTRGAYYYWGQGTQVTVSS,high polyreactivity
8,QVQLVESGGGLDQAGGSLRLSWAASGFTFKNYTMGWYRQAPGKERELVAAISKSGDITYYADSVKGRFTISRDNAKNTVYLQMNSLKPEDTAVYYCNAPRRNWSYDYWGQGTQVTVSS,high polyreactivity
9,QVQLVESGGGLDQAGGSLRLTCAASGRTIGSYAMGWYRQAPGKERELVAAISYSGGSTYYADSVKGRFTISRDNAKNTVYLQMNSLKPEDTAVYYCAKSWRYSIIQSYRAGYNYWGQGTQVTVSS,high polyreactivity
10,QVQLVESGGGLDQAGGSLRLTCAATGRIILGYAMGWYRQAPGKEREFVAANSRGGTSTYYADSVKGRFTISRDNAKNTVYLQMNSLKPEDTAVYYCAVDVPPYRLVRNYYEYDYWGQGTQVTVSS,high polyreactivity
11,QVQLVESGGGLDQAGGSLRLTWAASGSIFKFYAMGWYRQAPGKERDMVAAISQSGGRTYYADSVKGRFTISRDNAKNSVYLQMNSLKPEDTAVYYCAKSVFPVYGRPSNLWFNYWGQGTQVTVSS,high polyreactivity
12,QVQLVESGGGLDQAGGTLRLSCAASGSTFSDYAMGWYRQAPGKERQLVAAISVSDGSTYYADSVKGRFTISRDNAKNTVYFQMNSLKPEDTAVYYCAAEYPYFVYSYFRFDYWGQGTQVTVSS,low polyreactivity
13,QVQLVESGGGLDQAGRSLRLICAASVFTIHAYAMGRYRQAHGKERELVAAISASGGSTYYADSVKGRFTISRDNANNTVYLKMNSLKPEDTAVYYCNAGDYRTFYRRFDYWGQGTQVTVSS,low polyreactivity
14,QVQLVESGGGLDQAGRSLRLSCAASGFIFYYNAMGWYRQAPGKQRELVAAISSGGSTNYADSVKGRFTISRDNAKNTVYLQMNSLQPEDTAVYYCAKRPTGGYKYYYTTSKYDYWGQGTQVTVSS,low polyreactivity
15,QVQLVESGGGLDQARGTLRLSCAASGITITLYAMGWYRQTPGKESELVAAISRGGGTTNYADSVKGRFTISRDNAKNTVFLELNSLKPEDNAVYYCAAAYTIYWFSYRVLYYYWGQGTQVTVSS,low polyreactivity
16,QVQLVESGGGLDQPGGSLRLTWAASGSTFYLYTMGWYRQAHGKERELVARISSSGSTNYADSVKGRFTISRDNAKNAVYLQMNSLKPEDTAVYYCNKDWIYRGYDYWGQATQVTVSS,high polyreactivity
17,QVQLVESGGGLEQAGGSIRLNCAASGSTFRYNAMGWYRQARGKERELVAAITWSGGSTYFADSVKGRFTISRDNAKHNVYLQMNSLKAEDTAVYYCAKVYFWGALSPYKYDEDYWGQGTQVTVSS,low polyreactivity
18,QVQLVESGGGLEQAGGSLRLSCAASGRTFQYYTMGLYRQAPGKERELVAAISTGGSTHYSDSVKGRFTISRDNAKNTVYLEMFSLKPVDTAVYYCAALWSRRRSRPRFPGDFWGQGTQLTVSS,high polyreactivity
19,QVQLVESGGGLFHAGGSLRLSCAASGRTFGIYAMGGSRQAPGKERELVAAITWSGDSTYYADSVKGRFTISRDNAKNTVYLQMNRLKPEDTAVYYCAADYVGVTSVRYDYWGQGTQVTVSS,low polyreactivity
20,QVQLVESGGGLFHAGGSLRLSCAASGSTFAYYAMGWYIQAPGKERELVAGISGSGGSTYYADSVKGRFTISRDNAKNTVYLQMKSLKPEDNAVYYCAVVQRSKRTYPWYDYWGQGTQVTVCS,low polyreactivity
